Test results from patent US6664048 (MAX PLANCK GESELLSCHAFT ZUR FURDERUNG DER WISSENSCHAFTEN E V, dated 2003).

Target: T1, LexA protein expressed from pBTM117c (UniProt P0A7C2 1-202)
T1 construct: range 1-220
T1 sequence (looked up): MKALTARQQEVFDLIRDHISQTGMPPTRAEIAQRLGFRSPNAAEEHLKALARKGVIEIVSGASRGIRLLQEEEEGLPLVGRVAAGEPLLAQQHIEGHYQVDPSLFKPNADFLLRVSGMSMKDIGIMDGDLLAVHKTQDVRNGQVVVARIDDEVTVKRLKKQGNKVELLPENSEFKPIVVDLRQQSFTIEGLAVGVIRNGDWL
Assay: yeast two-hybrid in L40cc, growth on SD-leu-trp-his and β-galactosidase membrane assay
Description: Detection of Clones Expressing Known Interacting Proteins From False Positives Using the Improved Two-hybrid System Pairs of the yeast two-hybrid plasmids pBTM117cSIM1 & pGAD427-ARNT, pBTM117c & pGAD427 and pBTM117c-HIP1 & pGAD427 were transformed into the yeast strain L40cc, and Trp+Leu+ transformants that contained at least one of each of the two plasmids were selected on SD-leu-trp plates. Two transformants from each transformation were investigated for the presence of protein-protein interactions by testing the ability of the yeast cells to grow on SD-leu-trp, SD-leu-trp-his, SD-leu+CAN and SD-trp+CHX plates and by the β-galactosidase membrane assay (Breeden and Nasmyth, 1985). […] After selection of the yeast strains harboring the different combinations of the two-hybrid plasmids on SD-leu+CAN and SD-trp+CHX the resulting strains were also analyzed by the β-galactosidase assay. After incubating the membrane containing all three strains on SD-trp+CHX medium only progeny of the yeast strain that originally harbored both the plasmids pBTM117c-HIP1 & pGAD427 yet which had lost the pGAD427 plasmid through counterselection turned blue after incubating in X-Gal solution. […]

B1: GAL4ad protein expressed from pGAD427 (other, yeast, UniProt P04386 768-881, looked up)
chain: ANFNQSGNIADSSLSFTFTNSSNGPNLITTQTNSQALSQPIASSNVHDNFMNNEITASKIDDGNNSKPLSPGWTDQTAYNAFGITTGMFNTTTMDDVYNYLFDDEDTPPNPKKE
notes: range 768-881
B1: no binding.
